In patent KR20180079232A (dated 2018):

Biological target: T1, L1CAM (L1 cell adhesion molecule, CD171), human (human, UniProt P32004 20-1257)
T1 construct: whole, on cells; The target sat on L1CAM-expressing cells (SCK-L1, Choi-CK, TFK-1); For the western blots it was the membrane protein fraction of those cells after SDS-PAGE; also called 막 L1CAM; membrane L1CAM
Assay: confocal microscopy of L1CAM-expressing cells treated with Ab417 (10 ㎍/mL); surface-bound antibody detected with anti-human IgG

T1 sequence (P32004 20-1257): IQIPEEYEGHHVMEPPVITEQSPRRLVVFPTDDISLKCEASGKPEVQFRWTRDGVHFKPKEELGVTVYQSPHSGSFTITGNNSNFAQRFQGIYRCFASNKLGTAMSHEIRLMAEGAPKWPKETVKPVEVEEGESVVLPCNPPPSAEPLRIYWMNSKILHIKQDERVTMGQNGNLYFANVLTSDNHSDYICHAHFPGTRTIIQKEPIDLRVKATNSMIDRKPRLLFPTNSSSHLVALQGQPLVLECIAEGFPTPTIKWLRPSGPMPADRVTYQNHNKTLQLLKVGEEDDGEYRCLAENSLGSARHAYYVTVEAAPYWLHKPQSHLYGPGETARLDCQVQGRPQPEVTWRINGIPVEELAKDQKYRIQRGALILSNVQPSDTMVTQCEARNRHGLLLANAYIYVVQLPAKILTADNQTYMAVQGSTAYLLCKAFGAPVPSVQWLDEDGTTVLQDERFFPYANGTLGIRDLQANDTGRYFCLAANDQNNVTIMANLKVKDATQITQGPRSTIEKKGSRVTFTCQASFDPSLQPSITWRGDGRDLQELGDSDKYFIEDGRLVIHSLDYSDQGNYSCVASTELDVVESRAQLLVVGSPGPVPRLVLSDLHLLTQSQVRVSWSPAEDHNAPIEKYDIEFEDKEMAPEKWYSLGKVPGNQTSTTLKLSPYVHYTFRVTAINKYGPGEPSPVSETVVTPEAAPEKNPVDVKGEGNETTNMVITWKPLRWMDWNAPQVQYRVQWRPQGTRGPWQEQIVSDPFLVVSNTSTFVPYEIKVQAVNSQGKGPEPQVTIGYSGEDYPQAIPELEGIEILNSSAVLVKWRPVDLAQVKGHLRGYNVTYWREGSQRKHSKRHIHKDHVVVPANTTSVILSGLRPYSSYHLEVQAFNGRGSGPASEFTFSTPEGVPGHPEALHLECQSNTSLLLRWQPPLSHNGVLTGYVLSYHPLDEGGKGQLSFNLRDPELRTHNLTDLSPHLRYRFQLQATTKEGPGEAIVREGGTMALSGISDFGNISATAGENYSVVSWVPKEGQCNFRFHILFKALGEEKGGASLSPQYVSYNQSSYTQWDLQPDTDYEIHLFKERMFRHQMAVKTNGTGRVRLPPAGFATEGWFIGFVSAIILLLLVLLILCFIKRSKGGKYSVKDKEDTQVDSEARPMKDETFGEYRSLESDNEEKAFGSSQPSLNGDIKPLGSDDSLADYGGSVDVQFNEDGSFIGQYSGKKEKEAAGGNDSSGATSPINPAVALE

B1: Ab417 항체 (anti-L1CAM antibody Ab417) (antibody, V domains shown)
VH: EVQLVESGGGVVQPGRSLRLSCAASGFTFSRFGMHWVRQAPGKGLEWVAFISNDGSNKYYADSVKGRFTISRDNSKNTLYLQMNSLRPEDTAVYYCARGRAYGSGSLFDPWGQGTLVTVSS
VL: DIQLTQSPSSLSASVGDRVTITCRASRTISIYVNWYRQRPGKAPESLIYAASNLHSGVPSRFSGSGSGTDFTLTISSLQPEDFATYYCQQSIGRGVVTFGQGTKLEIK
notes: It is a whole antibody made in CHO-DG44 cell line #9-20 and purified on protein A. It was detected with anti-human IgG (H+L) and anti-human IgG (Fc-specific)
Does B1 bind?
Result: binds
